How the values were obtained:
MS2 coat protein [1] = experiment: apparent KD of MS2 coat protein, switch OFF state (with FMN for OFF switches, without FMN for ON switches); designed switch direction (-1 OFF switch, 1 ON switch): 1; higher = weaker reporter binding; settings: FMN input: 0 or 200 uM; Eterna round: R93 (includes R88 designs)
In short: (§1)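 Apparent KD per design is the median of normalised cluster binding-curve fits. Designed RNA switches transcribed on-chip from Illumina sequencing clusters were titrated with SNAP-549-labelled MS2 coat protein in twofold steps from 0.7 or 1.5 nM to 3 µM, with 0.8–1.5 h down to 10–20 min per step. Buffer: 100 mM Tris-HCl pH 7.5, 80 mM KCl, 4 mM MgCl2, without or with constant ligand.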

MS2 coat protein [2] = experiment: apparent KD of MS2 coat protein, switch ON state; designed switch direction (-1 OFF switch, 1 ON switch): 1; higher = weaker reporter binding; settings: FMN input: 0 or 200 uM; Eterna round: R93 (includes R88 designs)
In short: as §1

In the case of “CGGCUAAACGGGCAGGAUAUGUUCACUAGAACAUGAGGAUCACCCAUGUGAAACUGGCGAUAAUCGCAGAAGGGCCCGUGCACGA [Atensoin]”, the “apparent KD of MS2 coat protein” value (MS2 coat protein [1]) is reported as 61.3 nM and the “apparent KD of MS2 coat protein” value (MS2 coat protein [2]) is reported as 17.6 nM.
For “UAUCAUUACACGAAGGAUAUCGAUAAUUGAACAUGAGGAUCACCCAUGUGAUAUAUAAUACAGUUCGAGAAGGUCGAGGGUGAAG [JR_SS002_Sub704]”, the “apparent KD of MS2 coat protein” value (MS2 coat protein [1]) was 23.9 nM and the “apparent KD of MS2 coat protein” value (MS2 coat protein [2]) was 17.8 nM.
In the case of “AAAGACAUAGUUCAGGAUAUGGUAAUAGUCACAUGAGGAUCACCCAUGUGCAUUUAUAUGCGCGAUCAGAAGGGAGGUAAAAAAA [SameState2 Malc#16]”, the “apparent KD of MS2 coat protein” value (MS2 coat protein [1]) is reported as 21.9 nM and the “apparent KD of MS2 coat protein” value (MS2 coat protein [2]) is reported as 17.5 nM.
For “GGGAGACAUGAGGAUCACCCAUGUGAGAAGAGGCGAGGAUAUCGAAAGAAAGAAGAGAAACGAGAAGGCGCGAGUG [salish99-SS1-058]”, the “apparent KD of MS2 coat protein” value (MS2 coat protein [1]) was 82 nM and the “apparent KD of MS2 coat protein” value (MS2 coat protein [2]) was 64.8 nM.
For “CAGGACAUAGGAUAGGAUAUAUGAAUAAUUACAUGAGGAUCACCCAUGUCCAUUUAUAUGGGAACAUAGAAGGGUUGUAGUUAUG [Mat - Same state - Malcolm Mod - D143]”, the “apparent KD of MS2 coat protein” value (MS2 coat protein [1]) was 388 nM and the “apparent KD of MS2 coat protein” value (MS2 coat protein [2]) was 515 nM.
In the case of “AAUAUAUUAUUUAAGGAUAUCAUAGGAAAAACAUGAGGAUCACCCAUGUGGGAAACCUGGUCGGGUGAGAAGGUGGAUAAUAUAU [Samwise Clockwise 34 - Jieux - Same State 2]”, the “apparent KD of MS2 coat protein” value (MS2 coat protein [1]) is reported as 317 nM and the “apparent KD of MS2 coat protein” value (MS2 coat protein [2]) is reported as 93.7 nM.
For “AAAUAACAUGAGGAUCACCCAUGUUACGACGUUACAGGAUAUGUGGGUGAAAAUAGCAUGACAGAAGGGUACCGUA [SameState1 Malc#37]”, the “apparent KD of MS2 coat protein” value (MS2 coat protein [1]) was 60.3 nM and the “apparent KD of MS2 coat protein” value (MS2 coat protein [2]) was 68.5 nM.
In the case of “AAAAAACAUGAGGAUCACCCAUGUCAAAAGACGUGAGGAUAUGUACAGACUUCGGUCUGUACAGAAGGCAUGUAAA [SS1 - 1053]”, the “apparent KD of MS2 coat protein” value (MS2 coat protein [1]) is reported as 144 nM and the “apparent KD of MS2 coat protein” value (MS2 coat protein [2]) is reported as 21.3 nM.
In the case of “UUUAGUUGCGGGCAGGAUAUGUAUUAAAAUACAUGAGGAUCACCCAUGUGCGGGUAUAACACCCGACAGAAGGGCCAAUCGCGAC [Laonerce]”, the “apparent KD of MS2 coat protein” value (MS2 coat protein [1]) is reported as 305 nM and the “apparent KD of MS2 coat protein” value (MS2 coat protein [2]) is reported as 18.3 nM.
With “AAAAAACAUGAGGAUCACCCAUGUAAAAAAAUGGGAGGAUAUACAAAAACGAAAGAAAAAGUAGAAGGCCUGAAAA [same state 7]” the “apparent KD of MS2 coat protein” value (MS2 coat protein [1]) was 159 nM and the “apparent KD of MS2 coat protein” value (MS2 coat protein [2]) was 37.7 nM.
For “GAAGACAUAGUUCAGGAUAUAUGAAUAGUCACAUGAGGAUCACCCAUGUCCAUUUAUAUGGGCACAUAGAAGGGAGGUAGUUAUC [SameState2 Malc#25]”, the “apparent KD of MS2 coat protein” value (MS2 coat protein [1]) was 380 nM and the “apparent KD of MS2 coat protein” value (MS2 coat protein [2]) was 618 nM.
“AAAAAGAACACGCAGGAUAUGCAAAGAAACACAUGAGGAUCACCCAUGUCCAAAAACCCAAAAACGCAGAAGGGCGAAAAACCCA [Default title]” was tested, and the “apparent KD of MS2 coat protein” value (MS2 coat protein [1]) was 28.3 nM and the “apparent KD of MS2 coat protein” value (MS2 coat protein [2]) was 25.6 nM.
For “GAAAUACAUGAGGAUCACCCAUGUUAGGUGGAUCAAGGAUAUCAAGGUAAAUAAAAACCUUGAGAAGGUGAAUAAA [JR_SS001_Sub204]”, the “apparent KD of MS2 coat protein” value (MS2 coat protein [1]) was 141 nM and the “apparent KD of MS2 coat protein” value (MS2 coat protein [2]) was 87.8 nM.
In the case of “GACAGACAUGAGGAUCACCCAUGUAGAAUUAUGGGAGGAUAUACAAAGACGAGAGUCAGAGUAGAAGGCCUAGGAA [salish99-ss1-167]”, the “apparent KD of MS2 coat protein” value (MS2 coat protein [1]) is reported as 52.8 nM and the “apparent KD of MS2 coat protein” value (MS2 coat protein [2]) is reported as 23.2 nM.
For “AAUAAUUAUACGAAGGAUAUCGGUAUUAAGACAUGAGGAUCACCCAUGUAAUAUGGUUAUAUAAACGAGAAGGUCGAGGGUGAAA [JR_SS002_Sub008]”, the “apparent KD of MS2 coat protein” value (MS2 coat protein [1]) was 36.9 nM and the “apparent KD of MS2 coat protein” value (MS2 coat protein [2]) was 38.6 nM.
“AAUAUACAUGAGGAUCACCCAUGUUAGGUGGGACUAGGAUAUCAAAAGAAAGAGUAAGAAUGAGAAGGAGUAGAAA [JR_SS001_Sub016]” was tested, and the “apparent KD of MS2 coat protein” value (MS2 coat protein [1]) was 240 nM and the “apparent KD of MS2 coat protein” value (MS2 coat protein [2]) was 145 nM.
“AGAAAUAAAAGAGAGGAUAUCCAAAAGAAAACAUGAGGAUCACCCAUGUAAAAGAAAAUAAAAUGGGAGAAGGCUCGAAAUAAGA [Topaz 21]” was tested, and the “apparent KD of MS2 coat protein” value (MS2 coat protein [1]) was 107 nM and the “apparent KD of MS2 coat protein” value (MS2 coat protein [2]) was 18.3 nM.
For “AUAAAUAAAAGUGAGGAUAUCCAAAAAAAAACAUGAGGAUCACCCAUGUAAAAGAAAAUAAAAUGGGAGAAGGCACAAAAUAAAU [SS2 M 10]”, the “apparent KD of MS2 coat protein” value (MS2 coat protein [1]) was 26.2 nM and the “apparent KD of MS2 coat protein” value (MS2 coat protein [2]) was 11.9 nM.
With “AACAAUCUAUCUGAGGAUAUCAUGUGAAAGACAUGAGGAUCACCCAUGUUGCAGGAAACUGCUCAUGAGAAGGCAGAUAGAUUGA [SS2: 1126]” the “apparent KD of MS2 coat protein” value (MS2 coat protein [1]) was 28.3 nM and the “apparent KD of MS2 coat protein” value (MS2 coat protein [2]) was 11.5 nM.
With “GAAAAGAAAACACAGGAUAUCCAAAAGAAAACAUGAGGAUCACCCAUGUAAAGAAAAUAAAAAUGGGAGAAGGGUGAAAGAAAGA [Mat - Same State 2 - JL mod - D42]” the “apparent KD of MS2 coat protein” value (MS2 coat protein [1]) was 53.6 nM and the “apparent KD of MS2 coat protein” value (MS2 coat protein [2]) was 20.9 nM.
With “AGAAAUAAAAGUCAGGAUAUGGGUAAGAAAACAUGAGGAUCACCCAUGUAAAAGAAAAUAAAAAACCAGAAGGGACAAAAUAAAG [Reversing G segment in JL's winner (80%) Variant 4]” the “apparent KD of MS2 coat protein” value (MS2 coat protein [1]) was 88.6 nM and the “apparent KD of MS2 coat protein” value (MS2 coat protein [2]) was 30.1 nM.
For “GAAAUACAUGAGGAUCACCCAUGUUAGGUGAUUCAAGGAUAUCAAGGUAAAUAAAAACCUUGAGAAGGUGAAUAAA [JR_SS001_Sub205]”, the “apparent KD of MS2 coat protein” value (MS2 coat protein [1]) was 163 nM and the “apparent KD of MS2 coat protein” value (MS2 coat protein [2]) was 177 nM.
“AAUAGACAUGAGGAUCACCCAUGUGUAUAUGGGAGAGGAUAUACGGGACACAAGGGCGGAGUAGAAGGCUCGAGAC [Same Satate 1]” was tested, and the “apparent KD of MS2 coat protein” value (MS2 coat protein [1]) was 83.9 nM and the “apparent KD of MS2 coat protein” value (MS2 coat protein [2]) was 68.2 nM.
With “AGGAAACAUGAGGAUCACCCAUGUAAAAAUAUGGGAGGAUAUACAAACAGGAAAGUGAGAGUAGAAGGCCUAAAAG [Garnet 19]” the “apparent KD of MS2 coat protein” value (MS2 coat protein [1]) was 231 nM and the “apparent KD of MS2 coat protein” value (MS2 coat protein [2]) was 42.4 nM.
With “AAGAAACAUGAGGAUCACCCAUGUAAGAUAAACACAGGAUAUGCGAAAAUAAACAAAUAAGCAGAAGGGUGAAAAG [Mat - Same State 1 - Tesla mod - 76]” the “apparent KD of MS2 coat protein” value (MS2 coat protein [1]) was 19.3 nM and the “apparent KD of MS2 coat protein” value (MS2 coat protein [2]) was 15.2 nM.
With “AAAUAAAGGACUGAGGAUAUACCACAUGAAACAUGAGGAUCACCCAUGUUGAAAAACAGAGGGUGGUAGAAGGCAGUCCACAAAC [Same State 2.5d ( so lets mod hyphema)]” the “apparent KD of MS2 coat protein” value (MS2 coat protein [1]) was 23.3 nM and the “apparent KD of MS2 coat protein” value (MS2 coat protein [2]) was 12.5 nM.
In the case of “AAAAAAAAAAGAGAGGAUAUCCAAAAAAAAACAUGAGGAUCACCCAUGUAAAAAAAAAAAAAAUGGGAGAAGGCUCAAAAAAAAAA [Helter Skelter 1]”, the “apparent KD of MS2 coat protein” value (MS2 coat protein [1]) is reported as 54.8 nM and the “apparent KD of MS2 coat protein” value (MS2 coat protein [2]) is reported as 33.4 nM.
In the case of “AGAAAACAUGAGGAUCACCCAUGUAGAAAUAUGGGAGGAUAUACGAAGACGAAAGUCAAAGUAGAAGGCCUAAAAG [Mat - Same State 1 - Eli mod - D102]”, the “apparent KD of MS2 coat protein” value (MS2 coat protein [1]) is reported as 69.8 nM and the “apparent KD of MS2 coat protein” value (MS2 coat protein [2]) is reported as 22 nM.
In the case of “GAAAAACAUGAGGAUCACCCAUGUAGAAAUAUGGGAGGAUAUACGAAGUCGAAAGACAAAGUAGAAGGCCUAAAAG [Garnet 27]”, the “apparent KD of MS2 coat protein” value (MS2 coat protein [1]) is reported as 50.4 nM and the “apparent KD of MS2 coat protein” value (MS2 coat protein [2]) is reported as 27.9 nM.
In the case of “AGAAAUAAAACGCAGGAUAUCCAAAAGAAAACAUGAGGAUCACCCAUGUAAAAGAAAAUAAAAUGGGAGAAGGGCGAAAUAAAGA [Mat - Same State 2 - Eli mod - D92]”, the “apparent KD of MS2 coat protein” value (MS2 coat protein [1]) is reported as 20.9 nM and the “apparent KD of MS2 coat protein” value (MS2 coat protein [2]) is reported as 19.3 nM.
“AAUAUACAUGAGGAUCACCCAUGUUUUAAUAGCUGAGGAUAUACGGGUGAAAACAGCAUAGUAGAAGGCAGGUAUA [SameState1 Malc#7]” was tested, and the “apparent KD of MS2 coat protein” value (MS2 coat protein [1]) was 86.7 nM and the “apparent KD of MS2 coat protein” value (MS2 coat protein [2]) was 27.6 nM.
With “GAAAAACAUGAGGAUCACCCAUGUAGAAAUAUGGGAGGAUAUACAAAGACGAAAGUCAAAGUAGAAGGCCUGAUAG [JL S1 M-MoE mod 3]” the “apparent KD of MS2 coat protein” value (MS2 coat protein [1]) was 79.2 nM and the “apparent KD of MS2 coat protein” value (MS2 coat protein [2]) was 28.6 nM.
